US7687614 (University of California, dated 2010)

Target: the molecule itself
Assay: SDS-PAGE not boiled, fluorescence imaging of the gel

B1: tdimer2(12) (tandem dimer of dimer2 with the 12 residue linker) (other)
chain: MRGSHHHHHHGMASMTGGQQMGRDLYDDDDKDPMVASSEDVIKEFMRFKVRMEGSVNGHEFEIEGEGEGRPYEGTQTAKLKVTKGGPLPFAWDILSPQFQYGSKAYVKHPADIPDYKKLSFPEGFKWERVMNFEDGGVVTVTQDSSLQDGTLIYKVKFRGTNFPPDGPVMQKKTMGWEASTERLYPRDGVLKGEIHQALKLKDGGHYLVEFKTIYMAKKPVQLPGYYYVDTKLDITSHNEDYTIVEQYERSEGRHHLFLGHGTGSTGSGSSMVASSEDVIKEFMRFKVRMEGSVNGHEFEIEGEGEGRPYEGTQTAKLKVTKGGPLPFAWDILSPQFQYGSKAYVKHPADIPDYKKLSFPEGFKWERVMNFEDGGVVTVTQDSSLQDGTLIYKVKFRGTNFPPDGPVMQKKTMGWEASTERLYPRDGVLKGEIHQALKLKDGGHYLVEFKTIYMAKKPVQLPGYYYVDTKLDITSHNEDYTIVEQYERSEGRHHLFL
notes: Exact junctions (SphI/SacI sites, start Met of second copy) are not spelled out
binding result: binds
